In US20230121775A1 (AMUNIX PHARMACEUTICALS, published 2023):

What follows are binders tested against Biotinylated CD3(Eµ antigen (Creative Biomart) (UniProt P07766 23-126, biotinylated (site not stated))) (assay: BLI (ForteBio BLItz), biotinylated CD3 antigen on streptavidin biosensor, scFv in solution).
Sequence of Biotinylated CD3(Eµ antigen (Creative Biomart) (P07766 23-126): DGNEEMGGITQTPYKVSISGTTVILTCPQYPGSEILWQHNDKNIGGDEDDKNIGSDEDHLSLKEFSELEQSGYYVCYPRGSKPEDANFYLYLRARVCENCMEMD

Binder	Kd
CD3.9 scFv (parental anti-CD3 scFv) (scFv, VL-linker-VH scFv; also called hCD3.9; aCD3.9) scFv: ELVVTQEPSLTVSPGGTVTLTCRSSTGAVTTSNYANWVQQKPGQAPRGLIGGTNKRAPGTPARFSGSLLGGKAALTLSGVQPEDEAEYYCALWYSNLWVFGGGTKLTVLGATPPETGAETESPGETTGGSAESEPPGEGEVQLLESGGGLVQPGGSLKLSCAASGFTFNTYAMNWVRQAPGKGLEWVARIRSKYNNYATYYADSVKDRFTISRDDSKNTAYLQMNNLKTEDTAVYYCVRHGNFGNSYVSWFAYWGQGTLVTVSS	75 nM
CD3.26 scFv (scFv, VL-linker-VH scFv) scFv: ELVVTQEPSHTVSPGGTVTLTCRSSTGEVTTSNYANWVQQKPGQAPRGLIGGTIKRAPGTPARFSGSLLGGKAALTLSGVQPEDEAEYYCALWYPNLWVFGGGTKLTVLGATPPETGAETESPGETTGGSAESEPPGEGEVQLLESGGGIVQPGGSLKLSCAASGFTFNTYAMNWVRQAPGKGLEWVARIRSKYNNYATYYADSVKDRFTISRDDSKNTVYLQMNNLKTEDTAVYYCVRHENFGNSYVSWFAHWGQGTLVTVSS	221 nM
CD3.25 scFv (scFv, VL-linker-VH scFv) scFv: ELVVTQEPSHTVSPGGTVTLTCRSSTGAVTSSNYANWVQQKPGQAPRGLIGGTIKRAPGTPARFSGSLLGGKAALTLSGVQPEDEAEYYCALWYPNLWVFGGGTKLTVLGATPPETGAETESPGETTGGSAESEPPGEGEVQLLESGGGIVQPGGSLKLSCAASGFTFNTYAMNWVRQAPGKGLEWVARIRSKYNNYATYYADSVKDRFTISRDDSKNTVYLQMNNLKTEDTAVYYCVRHENFGNSYVSWFAHWGQGTLVTVSS	215 nM
CD3.24 scFv (scFv, VL-linker-VH scFv) scFv: ELVVTQEPSLTVSPGGTVTLTCRSSNGEVTTSNYANWVQQKPGQAPRGLIGGTIKRAPGTPARFSGSLLGGKAALTLSGVQPEDEAVYYCALWYPNLWVFGGGTKLTVLGATPPETGAETESPGETTGGSAESEPPGEGEVQLLESGGGIVQPGGSLKLSCAASGFTFNTYAMNWVRQAPGKGLEWVARIRSKYNNYATYYADSVKDRFTISRDDSKNTVYLQMNNLKTEDTAVYYCVRHENFGNSYVSWFAHWGQGTLVTVSS	296 nM
CD3.23 scFv (scFv, VL-linker-VH scFv; also called hCD3.23; aCD3.23) scFv: ELVVTQEPSLTVSPGGTVTLTCRSSNGAVTSSNYANWVQQKPGQAPRGLIGGTNKRAPGTPARFSGSLLGGKAALTLSGVQPEDEAVYYCALWYPNLWVFGGGTKLTVLGATPPETGAETESPGETTGGSAESEPPGEGEVQLLESGGGIVQPGGSLKLSCAASGFTFNTYAMNWVRQAPGKGLEWVARIRSKYNNYATYYADSVKDRFTISRDDSKNTVYLQMNNLKTEDTAVYYCVRHENFGNSYVSWFAHWGQGTLVTVSS	175 nM
